What was measured:
[1] = target: S2 subunit of the SARS-CoV-2 WT spike protein in infected Vero cells (SARS-CoV-2, Wuhan (WT), UniProt P0DTC2); experiment: western blot; conditions: one partner purified
[2] = target: T1, SARS-CoV-2 spike 1099-1112 peptide (GTH peptide) (Severe acute respiratory syndrome …); experiment: SPR; conditions: both partners purified
T1 construct: SARS-CoV-2 spike protein, residues 1099-1112, between HR1 and HR2 of the S2 domain
T1 chain: GTHWFVTQRNFYEP

[3] = target: T2, 6xHis-tagged recombinant SARS-CoV-2 (2019-nCoV) spike protein S1 + S2 extracellular domain (Severe acute respiratory syndrome …, UniProt P0DTC2); experiment: ELISA; […] (40 ng/mL, 50 μL) […]; conditions: one partner purified
T2 construct: SARS-CoV-2 (2019-nCoV) spike protein, S1 + S2 extracellular domain; lacks the cytoplasmic region; retains the S1/S2 cleavage regions; No catalogue number or limits are printed; also called recombinant S1 + S2; recombinant spike protein

[4] = target: T3, 6xHis-tagged recombinant SARS-CoV-2 (2019-nCoV) spike S2 extracellular domain (SARS-CoV-2, Wuhan (2019-nCoV), UniProt P0DTC2); experiment: western blot; recombinant spike proteins separated by SDS-PAGE on nitrocellulose; 5G2 mAb 0.2 μg/mL, RT 1 h; anti-mouse IgG-F(ab')2-HRP; conditions: both partners purified
T3 construct: SARS-CoV-2 (2019-nCoV) spike protein, S2 extracellular domain; lacks the cytoplasmic region; No catalogue number or limits are printed; also called recombinant S2; S2 subunit of the recombinant spike protein

[5] = target: T4, spike protein (S1 + S2) of SARS-CoV-2 WT (Wuhan strain) (SARS-CoV-2, Wuhan (WT), UniProt P0DTC2); experiment: ELISA; wells coated with 1 × 10^5 heat-inactivated virus in PBS; 5G2 mAb added; anti-mouse IgG-F(ab')2-HRP, A450; conditions: one partner purified
T4 construct: uncleaved S1 + S2 spike protein of SARS-CoV-2 WT (Wuhan strain), as made by the virus; also called original Wuhan strain; the coronavirus

[6] = target: T4, spike protein (S1 + S2) of SARS-CoV-2 …; experiment: western blot; conditions: one partner purified
[7] = target: T2, 6xHis-tagged recombinant SARS-CoV-2 …; experiment: western blot; recombinant spike proteins separated by SDS-PAGE on nitrocellulose; MBP-sc5G2-6xHis 0.8 μg/mL, RT 1 h; anti-MBP antibody and anti-mouse IgG-F(ab')2-HRP; conditions: both partners purified
[8] = target: T3, 6xHis-tagged recombinant SARS-CoV-2 …; experiment: as above; conditions: both partners purified
[9] = target: T5, recombinant S2 subunit of the spike protein without 6xHis (SARS-CoV-2, Wuhan (WT), UniProt P0DTC2); experiment: western blot
T5 construct: also called r-S2; recombinant S2 without 6xHis

[10] = target: T2, 6xHis-tagged recombinant SARS-CoV-2 …; experiment: western blot; conditions: one partner purified
[11] = target: T3, 6xHis-tagged recombinant SARS-CoV-2 …; experiment: western blot; conditions: one partner purified

B1: 5G2 monoclonal antibody (antibody, V domains shown)
VH: QIQLVQSGPELKKPGATVKISCKASGYTFTNYGMHWLKQTPGKVLKWMGLINTYTGEPKYADDFKGRFAFSLETSASTAYLQINNLRSEDTATYFCARKGLGLRPPMDSWGQGTSVTVSS
VL: QIVLSQSPAILSASPGEKVTMTCRASSSVNYMHWCQQKPGSSPKPLIHGTSNLASGVPGRFSGSGSGTSYSLTISRVEAEDAATYYCHQWNSYPLTFGAGTRLEL
notes: also called 5G2 mAb; mAb 5G2
binding result [1]: binds
Kd [2]: 0.11 nM
binding result [3]: binds
binding result [4]: binds
binding result [5]: binds

B2: MBP-sc5G2-6xHis produced by HEK293FT cells (scFv, V domains shown)
VH: QIQLVQSGPELKKPGATVKISCKASGYTFTNYGMHWLKQTPGKVLKWMGLINTYTGEPKYADDFKGRFAFSLETSASTAYLQINNLRSEDTATYFCARKGLGLRPPMDSWGQGTSVTVSS
VL: QIVLSQSPAILSASPGEKVTMTCRASSSVNYMHWCQQKPGSSPKPLIHGTSNLASGVPGRFSGSGSGTSYSLTISRVEAEDAATYYCHQWNSYPLTFGAGTRLEL
notes: as the heavy chain variable region of m1; as the light chain variable region of m1; The MBP cDNA came from the pMAL-p2 vector; not shown: MBP, N-terminal, kept; 6xHis, C-terminal, kept
binding result [6]: binds
binding result [7]: binds
binding result [8]: binds

B3: sc5G2-6xHis produced by E. coli (refolded) (scFv, V domains shown)
VH: QIQLVQSGPELKKPGATVKISCKASGYTFTNYGMHWLKQTPGKVLKWMGLINTYTGEPKYADDFKGRFAFSLETSASTAYLQINNLRSEDTATYFCARKGLGLRPPMDSWGQGTSVTVSS
VL: QIVLSQSPAILSASPGEKVTMTCRASSSVNYMHWCQQKPGSSPKPLIHGTSNLASGVPGRFSGSGSGTSYSLTISRVEAEDAATYYCHQWNSYPLTFGAGTRLEL
notes: as the heavy chain variable region of m1; as the light chain variable region of m1; also called MBP-free sc5G2
binding result [6]: binds
binding result [9]: binds

B4: recombinant 5G2 (cloned heavy and light chains fused to mouse IgG constant γ1 and κ chains) (antibody, V domains shown)
VH: QIQLVQSGPELKKPGATVKISCKASGYTFTNYGMHWLKQTPGKVLKWMGLINTYTGEPKYADDFKGRFAFSLETSASTAYLQINNLRSEDTATYFCARKGLGLRPPMDSWGQGTSVTVSS
VL: QIVLSQSPAILSASPGEKVTMTCRASSSVNYMHWCQQKPGSSPKPLIHGTSNLASGVPGRFSGSGSGTSYSLTISRVEAEDAATYYCHQWNSYPLTFGAGTRLEL
notes: as the heavy chain variable region of m1; mouse IgG constant γ1 chain; as the light chain variable region of m1; mouse immunoglobulin constant κ chain; Mouse IgG1 kappa; also called recombinant heavy and light chains of 5G2; 293FT + cDNA
binding result [10]: binds
binding result [11]: binds

B5: MBP-sc5G2-6xHis produced by E. coli (refolded) (scFv, V domains shown)
VH: QIQLVQSGPELKKPGATVKISCKASGYTFTNYGMHWLKQTPGKVLKWMGLINTYTGEPKYADDFKGRFAFSLETSASTAYLQINNLRSEDTATYFCARKGLGLRPPMDSWGQGTSVTVSS
VL: QIVLSQSPAILSASPGEKVTMTCRASSSVNYMHWCQQKPGSSPKPLIHGTSNLASGVPGRFSGSGSGTSYSLTISRVEAEDAATYYCHQWNSYPLTFGAGTRLEL
notes: as the heavy chain variable region of m1; as the light chain variable region of m1; Same cDNA as m3, in pET22b; not shown: MBP, N-terminal, kept; 6xHis, C-terminal, kept
binding result [6]: binds
binding result [7]: binds
binding result [8]: binds

Reference: article PMC11193732 (Scientific Reports, 2024)
